# Patent US20090004680A1
# Biological target: Mouse synaptosomes (BoNT/A acceptor on a mouse synaptosome preparation)
substance,measurement,value
Active BoNT/A (botulinum neurotoxin type A) (from UniProt P0DPI0 2-1296),maximum percent inhibition,78%
